Reference: patent US20200377590A1 (Hoffmann-La Roche, published 2020)
Positions count from the first letter of the chain named.

T1: CD81 (UniProt P60033 1-236, limits assumed)
T1 construct: whole, on cells; also called CD81 receptor
T1 sequence (looked up): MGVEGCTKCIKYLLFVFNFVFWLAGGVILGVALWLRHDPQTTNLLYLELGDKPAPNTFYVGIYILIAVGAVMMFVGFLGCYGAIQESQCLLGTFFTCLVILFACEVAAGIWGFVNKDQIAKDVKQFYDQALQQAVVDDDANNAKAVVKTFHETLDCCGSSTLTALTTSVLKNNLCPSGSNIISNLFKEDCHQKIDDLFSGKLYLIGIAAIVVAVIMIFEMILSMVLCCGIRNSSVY

B1: CD81K04 HC K04_JA-13-hVH_1_3 / LC JA_GG-08-hVK_4_1 (antibody, V domains shown)
VH: QVQLVQSGAEVKKPGASVKVSCKASGYTFSSSWMNWVRQAPGQRLEWMGRIYSGDGDAIYNGKFKGRVTITRDTSASTAYMELSSLRSEDTAVYYCAREGKTGDLLLRSWGQGTLVTVSS
VL: DIVMTQSPDSLAVSLGERATINCKSSKSVSTSIYSYMHWYQQKPGQPPKLLIKYASYLESGVPDRFSGSGSGTDFTLTISSLQAEDVAVYYCEHSREFPFTFGQGTKLEIK
notes: human constant region
B2: CD81K04 HC GG-02-hVH_1_69 / LC JA_GG-07-hVK_7_3 (antibody, V domains shown)
VH: B1 VH with A16S, R44G, G62Q, K65Q, R72A, T74E, A76T
VL: DIVLTQSPASLAVSPGQRATITCRASKSVSTSIYSYMHWYQQKPGQPPKLLIKYASNKDTGVPARFSGSGSGTDFTLTINPVEANDAANYYCLHSREFPYTFGQGTKLEIK
notes: human constant region
B3: CD81K04 HC GG-02-hVH_1_69 / LC GG-06-hVK_1_39 (antibody, V domains shown)
VH: B1 VH with A16S, R44G, G62Q, K65Q, R72A, T74E, A76T
VL: DIQMTQSPSSLSASVGDRVTITCRASKSVSTSIYSYLNWYQQKPGKAPKLLIYYASYLQSGVPSRFSGSGSGTDFTLTISSLQPEDFATYYCQHSREFPYTFGQGTKLEIK
notes: human constant region
B4: CD81K04 HC GG-02-hVH_1_69 / LC GG-05-hVK_3_11 (antibody, V domains shown)
VH: B1 VH with A16S, R44G, G62Q, K65Q, R72A, T74E, A76T
VL: EIVLTQSPATLSLSPGERATLSCRASKSVSTSIYSYLHWYQQKPGQAPRLLIYYASNRETGIPARFSGSGSGTDFTLTISSLEPEDFAVYYCQHSREFPFTFGQGTKLEIK
notes: human constant region
B5: CD81K04 HC K04_JA_GG-17-hVH_1_3 / LC JA_GG-09-hVK_4_1 (antibody, V domains shown)
VH: B1 VH with A58T, N61S, G62Q, K65Q, R72A
VL: B1 VL with Y57T, L58R
notes: human constant region
B6: CD81K04 HC K04_JA_GG-17-hVH_1_3 / LC JA_GG-10-hVK_4_1 (antibody, V domains shown)
VH: B1 VH with A58T, N61S, G62Q, K65Q, R72A
VL: B1 VL with K24R, S25A
notes: human constant region
B7: CD81K04 HC JA_GG-16-hVH_1_3 / LC JA_GG-07-hVK_7_3 (antibody, V domains shown)
VH: B1 VH with R44G, R72A
VL: B2 VL
notes: human constant region
B8: CD81K04 HC K04_JA-13-hVH_1_3 / LC GG-05-hVK_3_11 (antibody, V domains shown)
VH: B1 VH
VL: B4 VL
notes: human constant region
B9: CD81K04 HC GG-04-hVH_1_69 / LC JA_GG-07-hVK_7_3 (antibody, V domains shown)
VH: B1 VH with A16S, R44G, G62Q, K65Q, V68A, R72A, T74E, A76T
VL: B2 VL
notes: human constant region
B10: CD81K04 HC JA_GG-14-hVH_1_69-GA / LC GG-05-hVK_3_11 (antibody, V domains shown)
VH: B1 VH with A16S, R44G, R67K, V68A, R72A, T74E, A76T
VL: B4 VL
notes: human constant region
B11: CD81K04 HC JA_GG-16-hVH_1_3 / LC GG-05-hVK_3_11 (antibody, V domains shown)
VH: B1 VH with R44G, R72A
VL: B4 VL
notes: human constant region
B12: CD81K04 HC GG-05-hVH_1_18 / LC JA_GG-07-hVK_7_3 (antibody, V domains shown)
VH: B1 VH with R44G, N61A, G62Q, F64L, K65Q, I70M, R72T, A76T, S84R, E89D
VL: B2 VL
notes: human constant region
B13: CD81K04 HC GG-03-hVH_1_69 / LC JA_GG-07-hVK_7_3 (antibody, V domains shown)
VH: B1 VH with A16S, R44G, N61A, G62Q, K65Q, R72A, T74E, A76T
VL: B2 VL
notes: human constant region
B14: CD81K04 HC GG-05-hVH_1_18 / LC GG-06-hVK_1_39 (antibody, V domains shown)
VH: B1 VH with R44G, N61A, G62Q, F64L, K65Q, I70M, R72T, A76T, S84R, E89D
VL: B3 VL
notes: human constant region
B15: CD81K04 HC GG-03-hVH_1_69 / LC GG-05-hVK_3_11 (antibody, V domains shown)
VH: B1 VH with A16S, R44G, N61A, G62Q, K65Q, R72A, T74E, A76T
VL: B4 VL
notes: human constant region
B16: CD81K04 HC GG-04-hVH_1_69 / LC GG-05-hVK_3_11 (antibody, V domains shown)
VH: B1 VH with A16S, R44G, G62Q, K65Q, V68A, R72A, T74E, A76T
VL: B4 VL
notes: human constant region
B17: CD81K04 HC JA_GG-14-hVH_1_69 / LC GG-05-hVK_3_11 (antibody, V domains shown)
VH: B1 VH with A16S, R44G, R67K, V68A, R72A, T74E, A76T
VL: B4 VL
notes: human constant region
B18: CD81K04 HC K04_JA_GG-17-hVH_1_3 / LC JA_GG-08-hVK_4_1 (antibody, V domains shown)
VH: B1 VH with A58T, N61S, G62Q, K65Q, R72A
VL: B1 VL
notes: human constant region
B19: CD81K04 HC JA_GG-13-hVH_1_69 / LC JA_GG-07-hVK_7_3 (antibody, V domains shown)
VH: B1 VH with A16S, Y27G, R44G, N61A, G62Q, K65Q, R72A, T74E, A76T
VL: B2 VL
notes: human constant region
B20: CD81K04 HC K04_JA_GG-17-hVH_1_3 / LC JA_GG-07-hVK_7_3 (antibody, V domains shown)
VH: B1 VH with A58T, N61S, G62Q, K65Q, R72A
VL: B2 VL
notes: human constant region
B21: CD81K04 HC JA_GG-15-hVH_1_3 / LC GG-05-hVK_3_11 (antibody, V domains shown)
VH: B1 VH with R72A
VL: B4 VL
notes: human constant region
B22: CD81K04 HC GG-03-hVH_1_69 / LC GG-06-hVK_1_39 (antibody, V domains shown)
VH: B1 VH with A16S, R44G, N61A, G62Q, K65Q, R72A, T74E, A76T
VL: B3 VL
notes: human constant region
B23: CD81K04 HC K04_JA-13-hVH_1_3 / LC JA_GG-10-hVK_4_1 (antibody, V domains shown)
VH: B1 VH
VL: B1 VL with K24R, S25A
notes: human constant region
B24: CD81K04 HC K04_JA-13-hVH_1_3 / LC JA_GG-07-hVK_7_3 (antibody, V domains shown)
VH: B1 VH
VL: B2 VL
notes: human constant region
B25: CD81K04 HC JA_GG-15-hVH_1_3 / LC JA_GG-07-hVK_7_3 (antibody, V domains shown)
VH: B1 VH with R72A
VL: B2 VL
notes: human constant region
B26: CD81K04 HC K04_JA_GG-17-hVH_1_3 / LC GG-04-hVK_4_1 (antibody, V domains shown)
VH: B1 VH with A58T, N61S, G62Q, K65Q, R72A
VL: B1 VL with M37L, H38A, K53Y, Y57T, L58R, E93Q, F100Y
notes: human constant region
B27: CD81K04 HC JA_GG-14-hVH_1_3 / LC JA_GG-07-hVK_7_3 (antibody, V domains shown)
VH: B1 VH with R44G, V68A, R72A
VL: B2 VL
notes: human constant region
B28: CD81K04 HC K04_JA_GG-17-hVH_1_3 / LC GG-02-hVK_4_1 (antibody, V domains shown)
VH: B1 VH with A58T, N61S, G62Q, K65Q, R72A
VL: B1 VL with K53Y, L58R, E93Q
notes: human constant region
B29: CD81K04 HC JA_GG-14-hVH_1_3 / LC GG-05-hVK_3_11 (antibody, V domains shown)
VH: B1 VH with R44G, V68A, R72A
VL: B4 VL
notes: human constant region
B30: CD81K04 HC K04_JA-13-hVH_1_3 / LC JA_GG-09-hVK_4_1 (antibody, V domains shown)
VH: B1 VH
VL: B1 VL with Y57T, L58R
notes: human constant region
B31: CD81K04 HC JA_GG-13-hVH_1_69 / LC GG-05-hVK_3_11 (antibody, V domains shown)
VH: B1 VH with A16S, Y27G, R44G, N61A, G62Q, K65Q, R72A, T74E, A76T
VL: B4 VL
notes: human constant region
B32: CD81K04 HC GG-04-hVH_1_69 / LC GG-06-hVK_1_39 (antibody, V domains shown)
VH: B1 VH with A16S, R44G, G62Q, K65Q, V68A, R72A, T74E, A76T
VL: B3 VL
notes: human constant region

Biological target: T1, CD81
Test: cell ELISA;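 also: antibody binding to HuH7 cells expressing CD81 versus a CD81-negative HuH7 control line, bound antibody detected by secondary reagent, absorbance at 450 nm with 620 nm reference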
Procedure: For the binding cell ELISA assay, HuH7-Rluc-H3 (positive cell line expressing CD81) and HuH7-Rluc-L1 (negative control cell line) were propagated in F-12 DMEM medium with 10% FCS at 37° C. and 5% CO₂. On day 1, the cells were trypsinized at approximately 90% confluence and resuspended at 4×10⁵ cells/mL. […] On day 2, the antibody samples to be tested were prepared in a separate polypropylene round bottom plate with a twofold desired concentration with a final volume of 120 μl. All of the assay samples were diluted in cell culture medium. […] After fixation, each well was washed 3 times with 200 μL PBS/0.05% Tween. The secondary incubation step for detection of bound anti-CD81 antibodies was performed for 2 h at room temperature on a reciprocal shaker. […] Each well was washed three times with 200 μL PBS/0.05% Tween to remove unbound antibodies. […] The absorbance was read using the ELISA Tecan reader at 450 nm with 620 nm reference wavelength.

Binder	ELISA data
B1	0.985
B2	0.13
B3	0.08
B4	0.229
B5	0.911
B6	0.855
B7	0.161
B8	0.56
B9	0.12
B10	0.376
B11	0.631
B12	0.14
B13	0.091
B14	0.149
B15	0.204
B16	0.352

Binder	ELISA data
B17	0.403
B18	0.941
B19	0.087
B20	0.219
B21	0.699
B22	0.064
B23	0.861
B24	0.255
B25	0.262
B26	0.189
B27	0.154
B28	0.709
B29	0.696
B30	0.864
B31	0.228
B32	0.067
